Measurements taken from patent publication US20250381289A1 (Genmab, published 2025).

Legend:
[1] = target: T1, cMET on EGFR and cMET co-expressed tumor cell lines (UniProt P08581 25-1390, limits assumed); test: flow cytometry, A431 cells (co-express EGFR and cMET; both arms contribute)
T1 construct: whole, on cells

[2] = target: T2, EGFR on EGFR and cMET co-expressed tumor cell lines (UniProt P00533 25-1210, limits assumed); test: as above
T2 construct: whole, on cells

[3] = target: T3, human Sema3A recombinant protein (human, UniProt Q14563 21-771, limits assumed); test: ELISA, coated human Sema3A, anti-human Fc-HRP
T3 sequence (looked up): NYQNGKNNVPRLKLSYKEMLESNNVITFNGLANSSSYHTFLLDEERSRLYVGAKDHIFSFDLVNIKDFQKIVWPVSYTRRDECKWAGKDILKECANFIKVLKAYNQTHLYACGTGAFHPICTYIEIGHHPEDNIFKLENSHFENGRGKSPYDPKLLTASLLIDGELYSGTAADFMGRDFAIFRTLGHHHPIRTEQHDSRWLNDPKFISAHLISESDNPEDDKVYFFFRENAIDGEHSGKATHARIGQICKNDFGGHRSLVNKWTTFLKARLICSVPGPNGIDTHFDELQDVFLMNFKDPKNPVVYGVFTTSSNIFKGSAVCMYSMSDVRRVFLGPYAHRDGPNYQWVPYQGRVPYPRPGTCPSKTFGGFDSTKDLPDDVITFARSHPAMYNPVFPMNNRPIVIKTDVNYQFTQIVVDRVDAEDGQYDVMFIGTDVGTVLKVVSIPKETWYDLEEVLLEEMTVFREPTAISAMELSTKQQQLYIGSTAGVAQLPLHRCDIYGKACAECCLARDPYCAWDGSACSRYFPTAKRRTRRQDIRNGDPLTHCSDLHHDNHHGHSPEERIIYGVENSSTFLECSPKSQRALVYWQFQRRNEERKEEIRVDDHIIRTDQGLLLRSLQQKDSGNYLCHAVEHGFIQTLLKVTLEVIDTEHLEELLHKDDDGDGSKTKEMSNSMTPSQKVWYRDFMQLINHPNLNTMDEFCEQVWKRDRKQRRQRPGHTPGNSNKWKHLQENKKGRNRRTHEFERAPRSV
Procedure: (§1) Binding specificity was tested by ELISA according to the standard protocol. Specifically, 96-well plates were coated with 100 ng/well human EGFR, human HER2, human HER3, human HER4, human cMET, human Sema3A recombinant protein in PBS, incubated overnight at 4° C. Plates were washed twice by TBS+0.05% Tween20. 200 μL blocking buffer (2% BSA in PBS) was added to each well and incubated at 37° C. for 2 h. After wash, Serial diluted antibodies were added to the ELISA plate with 100 μL per well and incubated for 1 h at room temperature. Then plates were washed for 3 times. HRP conjugated anti-human Fc antibody solution (Abcam, ab98624) was added to the plate with 100 μL per well. The plates were incubated at room temperature for 1 h and then washed for 3 times. […] Finally, read the absorbance at A₄₅₀ and A₆₃₀.

[4] = target: T1, cMET on EGFR and cMET co-expressed …; test: flow cytometry, SNU-5 cells (co-express EGFR and cMET; both arms contribute)
[5] = target: T2, EGFR on EGFR and cMET co-expressed …; test: as above
[6] = target: human HER2 recombinant protein (human, UniProt P04626 23-652); test: ELISA, coated human HER2, anti-human Fc-HRP
Procedure: as §1

[7] = target: T4, human HER4 recombinant protein (human, UniProt Q15303 26-649, limits assumed); test: ELISA, coated human HER4, anti-human Fc-HRP
T4 sequence (looked up): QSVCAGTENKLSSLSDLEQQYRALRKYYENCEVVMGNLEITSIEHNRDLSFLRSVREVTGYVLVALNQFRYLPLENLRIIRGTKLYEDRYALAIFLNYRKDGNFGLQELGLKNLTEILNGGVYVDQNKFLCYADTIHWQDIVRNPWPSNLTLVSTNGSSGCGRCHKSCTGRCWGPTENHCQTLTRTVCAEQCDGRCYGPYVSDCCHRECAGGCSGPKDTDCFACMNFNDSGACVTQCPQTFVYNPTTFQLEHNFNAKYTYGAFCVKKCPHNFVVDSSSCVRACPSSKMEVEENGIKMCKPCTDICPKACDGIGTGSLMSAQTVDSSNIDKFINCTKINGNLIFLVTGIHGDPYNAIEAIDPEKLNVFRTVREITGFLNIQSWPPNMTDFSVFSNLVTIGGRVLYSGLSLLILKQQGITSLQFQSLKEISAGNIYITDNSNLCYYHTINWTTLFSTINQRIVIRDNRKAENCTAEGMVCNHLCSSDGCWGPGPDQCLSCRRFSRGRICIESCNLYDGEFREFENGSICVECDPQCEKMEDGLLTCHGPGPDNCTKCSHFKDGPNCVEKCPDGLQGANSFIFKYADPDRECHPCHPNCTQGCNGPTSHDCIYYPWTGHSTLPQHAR
Procedure: as §1

Human cMET = target: T5, Human cMET (human); test: ELISA, coated human cMET, anti-human Fc-HRP
T5 construct: recombinant protein; also called human cMET recombinant protein
Procedure: as §1

[8] = target: T1, cMET on EGFR and cMET co-expressed …; test: flow cytometry, EBC-1 cells (co-express EGFR and cMET; both arms contribute)
[9] = target: T2, EGFR on EGFR and cMET co-expressed …; test: as above

T1 sequence (P08581 25-1390 limits assumed): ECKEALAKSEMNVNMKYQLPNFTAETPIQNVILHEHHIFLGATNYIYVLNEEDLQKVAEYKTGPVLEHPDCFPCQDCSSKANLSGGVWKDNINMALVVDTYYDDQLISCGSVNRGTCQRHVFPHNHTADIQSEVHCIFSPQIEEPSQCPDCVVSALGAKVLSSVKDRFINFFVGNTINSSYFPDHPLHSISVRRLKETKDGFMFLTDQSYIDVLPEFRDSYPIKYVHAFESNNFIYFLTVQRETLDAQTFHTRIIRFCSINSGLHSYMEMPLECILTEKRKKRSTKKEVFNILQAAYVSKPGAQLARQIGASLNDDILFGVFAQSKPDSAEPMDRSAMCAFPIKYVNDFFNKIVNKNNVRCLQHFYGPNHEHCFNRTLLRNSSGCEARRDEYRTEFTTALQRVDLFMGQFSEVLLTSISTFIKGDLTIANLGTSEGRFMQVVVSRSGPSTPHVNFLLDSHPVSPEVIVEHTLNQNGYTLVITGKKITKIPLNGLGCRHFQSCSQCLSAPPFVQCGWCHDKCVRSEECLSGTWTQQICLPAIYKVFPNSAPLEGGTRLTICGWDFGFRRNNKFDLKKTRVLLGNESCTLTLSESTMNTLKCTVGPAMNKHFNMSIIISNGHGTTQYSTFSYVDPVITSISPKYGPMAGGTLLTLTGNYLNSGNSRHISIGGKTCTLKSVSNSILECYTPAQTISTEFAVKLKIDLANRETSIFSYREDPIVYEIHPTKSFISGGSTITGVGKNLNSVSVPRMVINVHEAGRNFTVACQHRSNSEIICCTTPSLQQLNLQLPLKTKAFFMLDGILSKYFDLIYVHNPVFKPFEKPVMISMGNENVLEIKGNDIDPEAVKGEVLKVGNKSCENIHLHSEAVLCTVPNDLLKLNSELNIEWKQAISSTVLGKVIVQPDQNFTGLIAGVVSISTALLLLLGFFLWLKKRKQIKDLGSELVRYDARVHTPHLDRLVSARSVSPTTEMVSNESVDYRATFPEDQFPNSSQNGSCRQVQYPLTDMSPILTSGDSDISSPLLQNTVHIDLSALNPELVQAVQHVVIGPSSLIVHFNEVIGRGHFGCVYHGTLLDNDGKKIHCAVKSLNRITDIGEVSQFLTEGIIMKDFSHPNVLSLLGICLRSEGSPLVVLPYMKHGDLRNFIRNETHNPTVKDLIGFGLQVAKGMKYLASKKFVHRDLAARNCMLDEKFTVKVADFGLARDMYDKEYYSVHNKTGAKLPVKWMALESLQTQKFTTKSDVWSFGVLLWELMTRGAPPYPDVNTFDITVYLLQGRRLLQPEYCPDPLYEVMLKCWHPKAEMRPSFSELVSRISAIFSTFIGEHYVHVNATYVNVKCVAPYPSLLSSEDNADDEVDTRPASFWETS
T5 sequence (P08581 whole entry): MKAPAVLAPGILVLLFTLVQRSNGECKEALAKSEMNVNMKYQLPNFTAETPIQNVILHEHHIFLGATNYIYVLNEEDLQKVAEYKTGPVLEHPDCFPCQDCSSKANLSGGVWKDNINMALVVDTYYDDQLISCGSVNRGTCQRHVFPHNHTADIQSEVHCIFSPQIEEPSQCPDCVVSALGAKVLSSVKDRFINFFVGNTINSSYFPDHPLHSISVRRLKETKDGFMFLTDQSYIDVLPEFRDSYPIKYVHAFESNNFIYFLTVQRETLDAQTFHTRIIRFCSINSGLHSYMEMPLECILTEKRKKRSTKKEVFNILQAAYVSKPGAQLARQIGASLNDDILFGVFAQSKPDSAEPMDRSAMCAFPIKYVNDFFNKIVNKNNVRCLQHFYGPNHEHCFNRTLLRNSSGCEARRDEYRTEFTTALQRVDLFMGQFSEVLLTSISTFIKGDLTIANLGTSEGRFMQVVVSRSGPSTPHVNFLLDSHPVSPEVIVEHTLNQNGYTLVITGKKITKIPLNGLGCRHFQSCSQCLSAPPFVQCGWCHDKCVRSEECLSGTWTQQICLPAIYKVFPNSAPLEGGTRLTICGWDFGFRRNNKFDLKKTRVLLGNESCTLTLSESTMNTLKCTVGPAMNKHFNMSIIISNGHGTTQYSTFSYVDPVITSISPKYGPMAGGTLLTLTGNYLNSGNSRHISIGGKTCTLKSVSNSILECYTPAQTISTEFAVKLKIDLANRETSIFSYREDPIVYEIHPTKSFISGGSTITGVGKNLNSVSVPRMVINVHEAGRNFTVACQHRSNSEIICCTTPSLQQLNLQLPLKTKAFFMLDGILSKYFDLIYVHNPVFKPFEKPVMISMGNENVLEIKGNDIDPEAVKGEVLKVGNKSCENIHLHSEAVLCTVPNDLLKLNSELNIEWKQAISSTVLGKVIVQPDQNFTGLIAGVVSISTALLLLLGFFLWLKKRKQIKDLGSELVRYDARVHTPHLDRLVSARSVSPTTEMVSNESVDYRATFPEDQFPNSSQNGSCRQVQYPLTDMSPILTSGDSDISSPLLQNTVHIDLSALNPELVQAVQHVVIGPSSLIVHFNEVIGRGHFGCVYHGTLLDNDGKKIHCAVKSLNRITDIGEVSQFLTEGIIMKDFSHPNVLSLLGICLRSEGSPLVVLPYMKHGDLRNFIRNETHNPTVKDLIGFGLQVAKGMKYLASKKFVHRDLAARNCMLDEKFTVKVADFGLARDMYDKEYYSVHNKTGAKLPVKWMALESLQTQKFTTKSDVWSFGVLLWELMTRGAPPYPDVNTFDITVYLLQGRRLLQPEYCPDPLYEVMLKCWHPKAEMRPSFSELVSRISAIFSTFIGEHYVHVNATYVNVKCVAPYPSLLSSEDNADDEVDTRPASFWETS

B1: AZD9592-Ab (bispecific antibody, human IgG1, kappa, lambda)
anti EGFR heavy chain: QVQLVQSGAEVKKPGSSVKVSCKASGGTFSDNDFSWVRQAPGQGLEWMGAIVAVFRTETYAQKFQDRVKITADISTRTTYMELSSLRSEDTAVYYCARRLMSAISGPGAPLLMWGQGTLVTVSSASTKGPSVCPLAPSSKSTSGGTAALGCLVKDYFPEPVTVSWNSGALTSGVHTFPAVLQSSGLYSLSSVVTVPSSSLGTQTYICNVNHKPSNTKVDKRVEPKSVDKTHTCPPCPAPEFEGGPSVFLFPPKPKDTLMISRTPEVTCVVVDVSHEDPEVKFNWYVDGVEVHNAKTKPREEQYNSTYRVVSVLTVLHQDWLNGKEYKCKVSNKALPASIEKTISKAKGQPREPQVYTLPPCREEMTKNQVSLWCLVKGFYPSDIAVEWESNGQPENNYKTTPPVLDSDGSFFLYSKLTVDKSRWQQGNVFSCSVMHEALHNHYTQKSLSLSPGK
anti EGFR light chain: QSALTQPRSVSGSPGQSVTISCTGTSSDVGGYNYVSWYQQHPGKAPKLMIYDVSKRPSGVPDRFSGSKSGNTASLTISGLQAEDEADYYCSSYTSSDTLEIFGGGTKLTVLGQPKAAPSVTLFPPCSEELQANKATLVCLISDFYPGAVTVAWKADSSPVKAGVETTTPSKQSNNKYAASSYLSLTPEQWKSHRSYSCQVTHEGSTVEKTVAPTEVS
anti cMET heavy chain: QVQLVQSGAEVKKPGASVKVSCKASGYTFTDYYIHWVRQATGQGLEWMGWMNPNSGNTGYAQKFQGRVTMTRDTSISTAYMELSSLRSEDTAVYYCARGQGYTHSWGQGTMVTVSSASTKGPSVFPLAPSSKSTSGGTAALGCLVKDYFPEPVTVSWNSGALTSGVHTFPAVLQSSGLYSLSSVVTVPSSSLGTQTYICNVNHKPSNTKVDKRVEPKSCDKTHTCPPCPAPEFEGGPSVFLFPPKPKDTLMISRTPEVTCVVVDVSHEDPEVKFNWYVDGVEVHNAKTKPREEQYNSTYRVVSVLTVLHQDWLNGKEYKCKVSNKALPASIEKTISKAKGQPREPQVCTLPPSREEMTKNQVSLSCAVKGFYPSDIAVEWESNGQPENNYKTTPPVLDSDGSFFLVSKLTVDKSRWQQGNVFSCSVMHEALHNHYTQKSLSLSPGK
anti cMET light chain: DIQMTQSPSTLSASVGDRVTITCRASEGIYHWLAWYQQKPGKAPKLLIYKASSLASGVPSRFSGSGSGTEFTLTISSLQPDDFATYYCQQYSNYPPTFGGGTKLEIKRTVAAPSVFIFPPSDEQLKSGTASVVCLLNNFYPREAKVQWKVDNALQSGNSQESVTEQDSKDSTYSLSSTLTLSKADYEKHKVYACEVTHQGLSSPVTKSFNRGEC
notes: also called RAA22/B09-TM
EC50 (read off the curve) [1]: ~10 nM
EC50 (read off the curve) [2]: ~10 nM
binding result [3]: no binding (tested: about 120 nM)
EC50 (read off the curve) [4]: ~2 nM
EC50 (read off the curve) [5]: ~2 nM
binding result [6]: no binding (tested: about 130 nM)
binding result [7]: no binding (tested: about 130 nM)
EC50 (read off the curve) (Human cMET): ~4 nM
EC50 (read off the curve) [8]: ~1 nM
EC50 (read off the curve) [9]: ~1 nM
